Patent publication US20240270821A1, “GIP/GLP1/GCG TRI-RECEPTOR AGONISTS AND USES THEREOF” (priority 2023, published 2024)
Starred links: 1 amine or outer side, 2 acyl side, 3 side chain; linkers in the order of their positions; H or OH if unused. Non-standard residues stand in square brackets, D forms with d. Groups on a side chain read outwards from the residue. No end group written: not given here. *: point of attachment. C20 diacid = O=C(O)CCCCCCCCCCCCCCCCCCC(=O)*; C18 diacid = O=C(O)CCCCCCCCCCCCCCCCC(=O)*; αMePhe(2-F) = C[C@](N)(Cc1ccccc1F)C(=O)O; γGlu = O=C(O)[C@H](CCC(=O)[*:2])N[*:1]; NMeY = CN[C@@H](Cc1ccc(O)cc1)C(=O)O; αMeF = C[C@](N)(Cc1ccccc1)C(=O)O; αMeL = CC(C)C[C@](C)(N)C(=O)O; Orn = NCCC[C@H](N)C(=O)O; AEEA = NCCOCCOCC(=O)O; Aib = CC(C)(N)C(=O)O

What was measured:
[1] = system: Intestinal organoid from Göttingen minipig jejunum tissue, 2D monolayer; experiment: Cell based in vitro permeability (Papp) assay; type: in vitro ADME
Outline: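 2D monolayers derived from Göttingen minipig jejunal organoids on transwell inserts. Basal samples collected at 20 min in the presence of C10. Peptide in apical and basal compartments quantified by LC/MS to give Papp.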

[2] = biological target: hGcgR (Homo sapiens, UniProt P47871); experiment: Functional cAMP activation in the presence of 0.1% casein (no HSA); type: cell-based; settings: in the presence of 0.1% casein (no HSA); geometric mean; read-out: Relative cAMP EC50, hGcgR;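 also: intracellular cAMP rise after 30 min at 37 °C, read by HTRF against a cAMP standard curve, scaled from buffer only (0%) to maximal control ligand response (100%)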
[3] = biological target: human GLP1-R (Homo sapiens, UniProt P43220); experiment: GLP1-R internalization assay in HEK293 cells; type: cell-based
[4] = biological target: T1, hGLP-1R (Homo sapiens, UniProt P43220); experiment: Functional cAMP activity in the presence of 1% HSA; type: cell-based; settings: read-out: cAMP Rel EC50, hGLP-1R
[5] = biological target: T1, hGLP-1R; experiment: Functional cAMP activation in the presence of 0.1% casein (no HSA); type: cell-based; settings: in the presence of 0.1% casein (no HSA); geometric mean; read-out: Relative cAMP EC50, hGLP-1R;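 also: intracellular cAMP rise after 30 min at 37 °C read by HTRF, normalized between buffer only (0%) and maximal control ligand (100%), four-parameter variable-slope fit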
[6] = biological target: human GcgR (Homo sapiens, UniProt P47871); experiment: Functional cAMP activity in the presence of 1% HSA; type: cell-based; settings: read-out: cAMP Rel EC50, hGcgR
[7] = biological target: T2, hGIPR (Homo sapiens, UniProt P48546); experiment: Functional cAMP activation in the presence of 0.1% casein (no HSA); type: cell-based; settings: in the presence of 0.1% casein (no HSA); geometric mean; read-out: Relative cAMP EC50, hGIPR;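 also: intracellular cAMP rise after 30 min at 37 °C read by HTRF against a standard curve, scaled between buffer alone (0%) and top control ligand concentration (100%), four-parameter fit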
T2 sequence (P48546 22-466): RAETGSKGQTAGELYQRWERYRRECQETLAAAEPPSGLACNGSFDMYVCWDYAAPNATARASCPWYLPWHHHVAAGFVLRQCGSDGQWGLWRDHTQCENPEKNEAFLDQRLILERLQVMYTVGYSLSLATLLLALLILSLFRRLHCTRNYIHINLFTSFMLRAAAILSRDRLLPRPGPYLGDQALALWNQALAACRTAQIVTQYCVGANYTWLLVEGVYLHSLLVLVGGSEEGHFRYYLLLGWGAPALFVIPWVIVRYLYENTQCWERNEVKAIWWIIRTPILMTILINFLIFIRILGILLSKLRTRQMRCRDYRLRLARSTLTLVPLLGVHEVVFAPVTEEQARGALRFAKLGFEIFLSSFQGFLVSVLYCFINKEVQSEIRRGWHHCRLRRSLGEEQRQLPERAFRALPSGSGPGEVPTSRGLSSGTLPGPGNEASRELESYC

[8] = biological target: T2, hGIPR; experiment: Functional cAMP activity in the presence of 1% HSA; type: cell-based; settings: read-out: cAMP Rel EC50, hGIPR
[9] = biological target: Pro-Link-tagged Human GLP-1R (human) (UniProt P43220); experiment: cell-based or functional assay
[10] = biological target: human glucagon receptor (human) (UniProt P47871); experiment: cell-based or functional assay
[11] = biological target: T3, human GIP receptor (human) (UniProt P48546); experiment: cell-based or functional assay
T3 sequence (looked up): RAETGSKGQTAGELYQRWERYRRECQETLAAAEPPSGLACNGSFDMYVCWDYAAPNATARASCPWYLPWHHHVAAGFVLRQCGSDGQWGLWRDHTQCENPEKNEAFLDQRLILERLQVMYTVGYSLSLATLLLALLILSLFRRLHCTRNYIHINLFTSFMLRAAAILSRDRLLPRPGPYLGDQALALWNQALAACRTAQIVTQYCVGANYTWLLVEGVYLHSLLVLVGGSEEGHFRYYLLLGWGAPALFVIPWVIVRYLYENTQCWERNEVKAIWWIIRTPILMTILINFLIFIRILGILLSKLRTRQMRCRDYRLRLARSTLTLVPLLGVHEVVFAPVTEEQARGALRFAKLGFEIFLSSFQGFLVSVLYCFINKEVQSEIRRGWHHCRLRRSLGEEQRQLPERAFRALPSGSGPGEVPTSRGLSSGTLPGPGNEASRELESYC

[12] = biological target: T1, hGLP-1R; experiment: cell-based or functional assay

T1 sequence (P43220 24-463): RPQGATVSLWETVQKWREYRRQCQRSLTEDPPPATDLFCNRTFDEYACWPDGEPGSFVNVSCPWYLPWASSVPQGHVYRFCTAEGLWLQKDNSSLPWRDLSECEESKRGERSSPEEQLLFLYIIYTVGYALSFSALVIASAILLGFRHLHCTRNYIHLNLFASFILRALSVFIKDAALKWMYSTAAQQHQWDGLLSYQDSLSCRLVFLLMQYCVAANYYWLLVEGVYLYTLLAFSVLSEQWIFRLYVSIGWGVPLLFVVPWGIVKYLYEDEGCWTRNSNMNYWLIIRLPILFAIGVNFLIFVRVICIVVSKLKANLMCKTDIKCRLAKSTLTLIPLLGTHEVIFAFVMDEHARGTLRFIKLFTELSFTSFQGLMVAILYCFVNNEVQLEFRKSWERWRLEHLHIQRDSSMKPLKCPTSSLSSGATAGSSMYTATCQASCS
Chain of Pro-Link-tagged Human GLP-1R (human) (P43220 24-463): as above
Chain of human glucagon receptor (human) (P47871 26-477): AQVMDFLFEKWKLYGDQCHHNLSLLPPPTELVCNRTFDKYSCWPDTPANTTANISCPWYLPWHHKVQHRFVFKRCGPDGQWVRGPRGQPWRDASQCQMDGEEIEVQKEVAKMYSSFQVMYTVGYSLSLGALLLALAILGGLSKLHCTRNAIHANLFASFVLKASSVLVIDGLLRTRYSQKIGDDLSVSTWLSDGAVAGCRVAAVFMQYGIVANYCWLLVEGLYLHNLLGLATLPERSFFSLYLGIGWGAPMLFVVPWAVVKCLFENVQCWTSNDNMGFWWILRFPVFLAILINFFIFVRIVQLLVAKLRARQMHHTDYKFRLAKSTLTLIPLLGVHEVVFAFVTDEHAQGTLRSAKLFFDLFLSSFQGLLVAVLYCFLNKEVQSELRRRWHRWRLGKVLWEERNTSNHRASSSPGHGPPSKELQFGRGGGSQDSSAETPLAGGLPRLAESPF
Chain of human GLP1-R (P43220 24-463): as the sequence (P43220 24-463) above
Chain of human GcgR (P47871 26-477): as the sequence (P47871 26-477) above
Chain of hGcgR (P47871 26-477): as above

“Y[Aib]QGTFTSDFS[Orn][αMeL]LDKK([AEEA-AEEA-γGlu-C18 diacid])AQ[Aib]AFIEYLLE[dA]GPSSGHPPPSGH-NH2 [Example 255]” was tested, and the “Relative Papp (Compared to internal standard)” value [1] was 0.23, the EC50 [2] was 5.48 nM and the EC50 ([3]; HEK293 cells expressing SNAP-GLP-1R, read-out: GLP1R Internalization EC50) was 47.1 nM. For the same molecule, the “Internalization % TOP” value ([3]; normalized to maximum concentration of GLP-1 (100%)) was 51.8%, the EC50 [4] was 272 nM and the EC50 [5] was 1.9 nM. It also gave an EC50 [6] of 883 nM, an EC50 [7] of 0.107 nM and an EC50 [8] of 21.9 nM.

B1: Example 290 (peptide)
chain: HXQGTXTSDYSILLDKKAAXAFIEYLIETGPSSGEPPPSEG
modifications: synthetic construct; SITE 2: note = 2-Aminoisobutyric Acid; SITE 6: note = alpha-methyl-2-fluoro-L-phenylalanine; SITE 17: note = Lysine is chemically modified through conjugation of the epsilon-amino group of the Lysine side chain with (2-[2-(2-Amino-ethoxy)-ethoxy]-acetyl)-(gamma-Glu)-CO-(CH2) 18-
With B1 the % Stimulation Max [9] was 83.5%, the hGLP1R β-arrestin Rel EC50 [9] was 3.94 nM and the Relative cAMP EC50 [10] was 2.68 nM. For the same molecule, the cAMP Rel EC50 (in the presence of 1% HSA) [10] was 878 nM, the Relative cAMP EC50 [11] was 0.43 nM and the cAMP Rel EC50 (in the presence of 1% HSA) [11] was 53.4 nM. It also gave a Relative cAMP EC50 [12] of 0.34 nM and a cAMP Rel EC50 (in the presence of 1% HSA) [12] of 90 nM.

B2: Example 293 (peptide)
chain: Y[Aib]QGT[αMePhe(2-F)]TSDYSILLDKIAQK([AEEA-γGlu-C20 diacid])AFIEYLLEGGPSSGEPPPSEG-NH2
For B2, the % Stimulation Max [9] was 54.6%, the hGLP1R β-arrestin Rel EC50 [9] was 11.9 nM and the Relative cAMP EC50 [10] was 4.01 nM. For the same molecule, the cAMP Rel EC50 (in the presence of 1% HSA) [10] was 1740 nM, the Relative cAMP EC50 [11] was 0.0587 nM and the cAMP Rel EC50 (in the presence of 1% HSA) [11] was 9.63 nM. The Relative cAMP EC50 [12] was 0.994 nM and the cAMP Rel EC50 (in the presence of 1% HSA) [12] was 295 nM.

B3: Example 294 (peptide)
chain: YXQGTFTSDYSIXLDKKAAXAFIEYLLEGGPSSGEPPPSEG
modifications: synthetic construct; SITE 2: note = 2-Aminoisobutyric Acid; SITE 13: note = alpha-methyl-leucine; SITE 17: note = Lysine is chemically modified through conjugation of the epsilon-amino group of the Lysine side chain with (2-[2-(2-Amino-ethoxy)-ethoxy]-acetyl)2-(gamma-Glu)-CO-(CH2 )18-CO2H; SITE 20:
With B3 the % Stimulation Max [9] was 35.3%, the hGLP1R β-arrestin Rel EC50 [9] was 27.7 nM and the Relative cAMP EC50 [10] was 1.07 nM. For the same molecule, the cAMP Rel EC50 (in the presence of 1% HSA) [10] was 518 nM, the Relative cAMP EC50 [11] was 0.318 nM and the cAMP Rel EC50 (in the presence of 1% HSA) [11] was 54.1 nM. It also gave a Relative cAMP EC50 [12] of 2.16 nM and a cAMP Rel EC50 (in the presence of 1% HSA) [12] of 554 nM.

B4: Example 297 (peptide)
chain: [NMeY][Aib]QGT[αMeF]TSDYSSLLDKIAAK([AEEA-AEEA-γGlu-C20 diacid])AFIEYLLEGGPSSGEPPPSEG-NH2
Molecule B4 has a % Stimulation Max [9] of 33.5%, a hGLP1R β-arrestin Rel EC50 [9] of 60.2 nM and a Relative cAMP EC50 [10] of 3.26 nM. For the same molecule, the cAMP Rel EC50 (1% HSA) [10] was 2320 nM, the Relative cAMP EC50 [11] was 0.626 nM and the cAMP Rel EC50 (1% HSA) [11] was 325 nM. It also gave a Relative cAMP EC50 [12] of 2.96 nM and a cAMP Rel EC50 (1% HSA) [12] of 1130 nM.

B5: Example 298 (peptide)
chain: HXQGTXTSDYSILLDKKAAXAFIEYLIEAGPSSGEPPPSEG
modifications: synthetic construct; SITE 2: note = 2-Aminoisobutyric Acid; SITE 6: note = alpha-methyl-2-fluoro-L-phenylalanine; SITE 17: note = Lysine is chemically modified through conjugation of the epsilon-amino group of the Lysine side chain with (2-[2-(2-Amino-ethoxy)-ethoxy]-acetyl)-(gamma-Glu)-CO-(CH2) 18-
With B5 the % Stimulation Max [9] was 86.4%, the hGLP1R β-arrestin Rel EC50 [9] was 3.29 nM and the Relative cAMP EC50 [10] was 1.04 nM. For the same molecule, the cAMP Rel EC50 (1% HSA) [10] was 1570 nM, the Relative cAMP EC50 [11] was 0.138 nM and the cAMP Rel EC50 (1% HSA) [11] was 41.3 nM. For the same molecule, the Relative cAMP EC50 [12] was 0.277 nM and the cAMP Rel EC50 (1% HSA) [12] was 70.9 nM.

B6: Example 300 (peptide)
chain: [NMeY][Aib]QGT[αMeF]TSDYSILLDKIAAK([AEEA-AEEA-γGlu-C20 diacid])AFVQWLIAGGPSSGEPPPSEG-NH2
B6 gave a % Stimulation Max [9] of 40.3%, a hGLP1R β-arrestin Rel EC50 [9] of 15.7 nM and a Relative cAMP EC50 [10] of 6.54 nM. It also gave a cAMP Rel EC50 (1% HSA) [10] of 976 nM, a Relative cAMP EC50 [11] of 0.0975 nM and a cAMP Rel EC50 (1% HSA) [11] of 12.9 nM. It also gave a Relative cAMP EC50 [12] of 1.05 nM and a cAMP Rel EC50 (1% HSA) [12] of 98 nM.

B7: Example 301 (peptide)
chain: [NMeY][Aib]QGT[αMeF]TSDYSILLDKQAAK([AEEA-AEEA-γGlu-C20 diacid])AFVQWLIAGGPSSGEPPPSEG-NH2
Molecule B7 has a % Stimulation Max [9] of 59.1%, a hGLP1R β-arrestin Rel EC50 [9] of 13.2 nM and a Relative cAMP EC50 [10] of 6.73 nM. For the same molecule, the cAMP Rel EC50 (1% HSA) [10] was 1500 nM, the Relative cAMP EC50 [11] was 0.722 nM and the cAMP Rel EC50 (1% HSA) [11] was 81.8 nM. The Relative cAMP EC50 [12] was 0.641 nM and the cAMP Rel EC50 (1% HSA) [12] was 82.4 nM.

B8: Example 302 (peptide)
chain: [NMeY][Aib]QGT[αMeF]TSDYSILLDKQAAK([AEEA-AEEA-γGlu-C20 diacid])AFVQWLIEGGPSSGEPPPSEG-NH2
In the case of B8, the % Stimulation Max [9] is reported as 56.6%, the hGLP1R β-arrestin Rel EC50 [9] is reported as 11.2 nM and the Relative cAMP EC50 [10] is reported as 4.47 nM. For the same molecule, the cAMP Rel EC50 (1% HSA) [10] was 1370 nM, the Relative cAMP EC50 [11] was 0.7 nM and the cAMP Rel EC50 (1% HSA) [11] was 91.8 nM. It also gave a Relative cAMP EC50 [12] of 0.621 nM and a cAMP Rel EC50 (1% HSA) [12] of 73.6 nM.

B9: Example 304 (peptide)
chain: Y[Aib]QGT[αMePhe(2-F)]TSDYSKLLDKIAQKAFIEYLIEGGPSSGEPPPSEG-NH2
modifications: not fully specified (residue 20)
Work on B9 yielded a % Stimulation Max [9] of 47.8%, a hGLP1R β-arrestin Rel EC50 [9] of 9.21 nM and a Relative cAMP EC50 [10] of 2.31 nM. It also gave a cAMP Rel EC50 (1% HSA) [10] of 1720 nM, a Relative cAMP EC50 [11] of 0.127 nM and a cAMP Rel EC50 (1% HSA) [11] of 48 nM. It also gave a Relative cAMP EC50 [12] of 0.551 nM and a cAMP Rel EC50 (1% HSA) [12] of 172 nM.
